For orientation: Kd means the concentration at which binding is half-saturated.

The target in assay [1] is Fc receptors on K562 cells. The assay can be described thus: cell-based or functional assay.
Assay [2] addresses Envelope glycoprotein (E) of antigenic variant DENV-4 v4 (Leu for Pro at position 176 in E) (dengue virus type 4) (UniProt P09866). In words: cell-based or functional assay.
The target in assay [3] is Envelope glycoprotein (E) of antigenic variant DENV-4 v3 (Glu for Lys at position 174 in E) (dengue virus type 4) (UniProt P09866). The assay can be described thus: cell-based or functional assay.
Assay [4] deals with Envelope glycoprotein (E) of antigenic variant DENV-4 v4 (Leu for Pro at position 176 in E) (dengue virus type 4) (UniProt P09866).
Assay [5] concerns the target Envelope glycoprotein (E) of parental DENV-4 (FRhL) (dengue virus type 4) (UniProt P09866).

For the substance “IgG 1A5 ΔA (replacement amino acids at 327, 330 and 331 from the Fc of IgG4) (from UniProt P01857 1-330) (antibody)”, the enhancing activity of DENV-4 infection in K562 cells, % of cells infected in assay [1] was found to be 37.6%.

On to “Humanized IgG 5H2 ΔD (IgG1 5H2 with a 9-amino-acid deletion, positions 231-239, at the N-terminus of the CH2 domain) (antibody)”, for which the results for the PRNT50 titer in assay [2] and in assay [3] were 0.5 µg/mL and greater than 10 µg/mL, respectively. The equilibrium dissociation constant (Kd) was determined as 320 pM in assay [4] and 230 pM in assay [5].

Regarding “IgG 1A5 ΔC (replacements of both variants ΔA and ΔB) (from UniProt P01857 1-330) (antibody)”, in assay [1], the enhancing activity of DENV-4 infection in K562 cells, % of cells infected came to 18.8%.

As for “IgG 1A5 ΔB (replacement amino acids at 233-236 from the Fc of IgG2) (from UniProt P01857 1-330) (antibody)”, in assay [1], the enhancing activity of DENV-4 infection in K562 cells, % of cells infected worked out at 24%.
